Biological target: SRSF1 (ASF/SF2), unphosphorylated (human, UniProt Q07955 1-248)
Assay: filter binding

Chain of SRSF1 (ASF/SF2), unphosphorylated (Q07955 whole entry): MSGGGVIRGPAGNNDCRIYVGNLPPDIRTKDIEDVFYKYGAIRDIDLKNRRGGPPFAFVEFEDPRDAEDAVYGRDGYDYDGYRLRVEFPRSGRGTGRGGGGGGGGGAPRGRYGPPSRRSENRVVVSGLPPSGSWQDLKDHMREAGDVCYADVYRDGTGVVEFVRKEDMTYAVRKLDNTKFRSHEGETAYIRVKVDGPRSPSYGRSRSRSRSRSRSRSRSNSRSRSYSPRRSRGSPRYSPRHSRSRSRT

B1: Ron ESE 13mer (ssRNA)
RNA: AGGCGGAGGAAGC
  apparent K (half saturation): 66 ± 2 nM

— paper PMC5056641
